Data: US20210155918A1

Legend:
[1] = biological target: rPro^Δ473-487, recombinant human prothrombin with region 473-487 deleted (human) (UniProt P00734)
[2] = biological target: rPro^ΔC10, recombinant human prothrombin missing amino acids … (human) (UniProt P00734)
[3] = biological target: rPro^ΔN10, recombinant human prothrombin missing amino acids … (human) (UniProt P00734)
[4] = biological target: rPro^ΔS5V, recombinant human prothrombin with region SVLQV deleted (human) (UniProt P00734)
[5] = biological target: rPro^ΔSLQ, recombinant human prothrombin with amino acids Ser^478/Leu^480/Gln^481 deleted (human) (UniProt P00734)

**Q.** For “Human fXa (from UniProt P00742) (enzyme)”, which Rate of Pro molecules cleavage by membrane-bound fXa alone (nM consumed · s^-1 · fXa^-1) [1] is on record?
**A.** 0.53

**Q.** What about the Rate of Pro molecules cleavage by membrane-bound fXa alone (nM consumed · s^-1 · fXa^-1) [2] of the same substance?
**A.** 0.35

**Q.** And the Rate of Pro molecules cleavage by membrane-bound fXa alone (nM consumed · s^-1 · fXa^-1) [3]?
**A.** 0.7

**Q.** And the Rate of Pro molecules cleavage by membrane-bound fXa alone (nM consumed · s^-1 · fXa^-1) [4]?
**A.** 0.8

**Q.** What does the source list for “prothrombinase (from UniProt P00742) (enzyme)”?
**A.** Rate of Pro molecules cleavage by prothrombinase (nM consumed · s^-1 · fXa^-1) [1]: 1; Rate of Pro molecules cleavage by prothrombinase (nM consumed · s^-1 · fXa^-1) [3]: 1.5; Rate of Pro molecules cleavage by prothrombinase (nM consumed · s^-1 · fXa^-1) [4]: 1.8; Km of prothrombinase for rPro activation [5]: 3.2 µM; kcat/Km of prothrombinase for rPro activation (IIa generation, chromogenic substrate) [5]: 670000 M⁻¹ s⁻¹
